The values below come from US20140087995A1 (published 2014).

Assay [1] deals with T1, human calcitonin receptor (human, UniProt P30988 25-474).
T1 construct: whole, on cells; also called hCTR; hCT
T1 sequence (looked up): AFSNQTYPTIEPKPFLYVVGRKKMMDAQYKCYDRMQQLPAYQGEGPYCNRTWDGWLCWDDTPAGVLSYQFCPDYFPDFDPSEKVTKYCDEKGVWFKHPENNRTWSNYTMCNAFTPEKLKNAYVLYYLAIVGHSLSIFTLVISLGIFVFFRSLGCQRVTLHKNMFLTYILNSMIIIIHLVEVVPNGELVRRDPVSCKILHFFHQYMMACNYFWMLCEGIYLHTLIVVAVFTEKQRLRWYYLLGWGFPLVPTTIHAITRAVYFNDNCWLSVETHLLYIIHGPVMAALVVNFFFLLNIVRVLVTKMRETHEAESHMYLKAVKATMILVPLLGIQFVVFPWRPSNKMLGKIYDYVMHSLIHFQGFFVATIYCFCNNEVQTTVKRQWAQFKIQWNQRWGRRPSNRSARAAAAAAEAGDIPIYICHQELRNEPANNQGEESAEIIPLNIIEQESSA
As to the kind of experiment: SPA radioligand competition (125I-calcitonin), membranes of BHK cells with human calcitonin receptor. An outline of the steps: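 BHK hCTR membranes 35 ng/μL + SPA beads 0.05 mg/well; buffer 50 mM Hepes pH 7.4, 1 mM CaCl2, 5 mM MgCl₂, 0.1% OA, 0.02% Tween20. 120 min, 25° C., shaking. Scintillation count; IC50 by one-site binding competition.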

Assay [2] addresses T1, human calcitonin receptor. The assay is described as follows: ratio of IC50 at human calcitonin receptor to IC50 at human amylin receptor (SPA competition assays). An outline of the steps: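 Membranes (35 ng/μL final) + SPA beads, 50 mM Hepes pH 7.4 buffer with 1 mM CaCl2, 5 mM MgCl₂, 0.1% OA, 0.02% Tween20; 120 min, 25° C, shaking; centrifuged, counted; IC₅₀ by one-site binding competition.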

Numbered stars: 1 amine (or outer) side, 2 acyl side, 3 side chain; on linkers, the order of the positions; unused ones are H or OH. Bridge positions count the residues as written; N and C are the ends. Side chains are listed from the residue outwards. Ends that are not written are not given here. * marks the point of attachment. C20 diacid = O=C(O)CCCCCCCCCCCCCCCCCCC(=O)*; γGlu = O=C(O)[C@H](CCC(=O)[*:2])N[*:1]

B1: N^ε1-[(4S)-4-carboxy-4-(19-carboxynonadecanoylamino)butanoyl]-[Glu14,Arg17,Pro21,Pro27,Arg34,Glu35]-h-amylin (peptide)
peptide: K([γGlu-C20 diacid])CNTATCATQRLAEFLRHSSPNFGAIPSSTNVGRETY-NH2
modifications: disulfide 2-7; N-terminus assumed
SMILES: CC[C@H](C)[C@H](NC(=O)[C@H](C)NC(=O)CNC(=O)[C@H](Cc1ccccc1)NC(=O)[C@H](CC(N)=O)NC(=O)[C@@H]1CCCN1C(=O)[C@H](CO)NC(=O)[C@H](CO)NC(=O)[C@H](Cc1c[nH]cn1)NC(=O)[C@H](CCCNC(=N)N)NC(=O)[C@H](CC(C)C)NC(=O)[C@H](Cc1ccccc1)NC(=O)[C@H](CCC(=O)O)NC(=O)[C@H](C)NC(=O)[C@H](CC(C)C)NC(=O)[C@H](CCCNC(=N)N)NC(=O)[C@H](CCC(N)=O)NC(=O)[C@@H](NC(=O)[C@H](C)NC(=O)[C@@H]1CSSC[C@H](NC(=O)[C@@H](N)CCCCNC(=O)CC[C@H](NC(=O)CCCCCCCCCCCCCCCCCCC(=O)O)C(=O)O)C(=O)N[C@@H](CC(N)=O)C(=O)N[C@@H]([C@@H](C)O)C(=O)N[C@@H](C)C(=O)N[C@@H]([C@@H](C)O)C(=O)N1)[C@@H](C)O)C(=O)N1CCC[C@H]1C(=O)N[C@@H](CO)C(=O)N[C@@H](CO)C(=O)N[C@H](C(=O)N[C@@H](CC(N)=O)C(=O)N[C@H](C(=O)NCC(=O)N[C@@H](CCCNC(=N)N)C(=O)N[C@@H](CCC(=O)O)C(=O)N[C@H](C(=O)N[C@@H](Cc1ccc(O)cc1)C(N)=O)[C@@H](C)O)C(C)C)[C@@H](C)O
B1: in assay [1], the concentration for half-maximal inhibition (IC50) came to 6.62 nM. Also, the “Ratio hCT/hAmylin binding” value in assay [2] was determined as 28.5.

B2: N^ε1-[(4S)-4-carboxy-4-(19-carboxynonadecanoylamino)butanoyl]-[His14,Arg17,Pro21,Pro27,Pro31,Pro34]-h-amylin (peptide)
peptide: K([γGlu-C20 diacid])CNTATCATQRLAHFLRHSSPNFGAIPSSTPVGPNTY-NH2
modifications: disulfide 2-7; N-terminus assumed
SMILES: CC[C@H](C)[C@H](NC(=O)[C@H](C)NC(=O)CNC(=O)[C@H](Cc1ccccc1)NC(=O)[C@H](CC(N)=O)NC(=O)[C@@H]1CCCN1C(=O)[C@H](CO)NC(=O)[C@H](CO)NC(=O)[C@H](Cc1c[nH]cn1)NC(=O)[C@H](CCCNC(=N)N)NC(=O)[C@H](CC(C)C)NC(=O)[C@H](Cc1ccccc1)NC(=O)[C@H](Cc1c[nH]cn1)NC(=O)[C@H](C)NC(=O)[C@H](CC(C)C)NC(=O)[C@H](CCCNC(=N)N)NC(=O)[C@H](CCC(N)=O)NC(=O)[C@@H](NC(=O)[C@H](C)NC(=O)[C@@H]1CSSC[C@H](NC(=O)[C@@H](N)CCCCNC(=O)CC[C@H](NC(=O)CCCCCCCCCCCCCCCCCCC(=O)O)C(=O)O)C(=O)N[C@@H](CC(N)=O)C(=O)N[C@@H]([C@@H](C)O)C(=O)N[C@@H](C)C(=O)N[C@@H]([C@@H](C)O)C(=O)N1)[C@@H](C)O)C(=O)N1CCC[C@H]1C(=O)N[C@@H](CO)C(=O)N[C@@H](CO)C(=O)N[C@H](C(=O)N1CCC[C@H]1C(=O)N[C@H](C(=O)NCC(=O)N1CCC[C@H]1C(=O)N[C@@H](CC(N)=O)C(=O)N[C@H](C(=O)N[C@@H](Cc1ccc(O)cc1)C(N)=O)[C@@H](C)O)C(C)C)[C@@H](C)O
B2: the IC50 in assay [1] was 2.04 nM. For the same molecule, the “Ratio hCT/hAmylin binding” value in assay [2] came to 24.8.

B3: N^ε1-[(4S)-4-carboxy-4-(19-carboxynonadecanoylamino)butanoyl]-[His14,Arg17,Pro21,Pro27,Arg34]-h-amylin (peptide)
peptide: K([γGlu-C20 diacid])CNTATCATQRLAHFLRHSSPNFGAIPSSTNVGRNTY-NH2
modifications: disulfide 2-7; N-terminus assumed
SMILES: CC[C@H](C)[C@H](NC(=O)[C@H](C)NC(=O)CNC(=O)[C@H](Cc1ccccc1)NC(=O)[C@H](CC(N)=O)NC(=O)[C@@H]1CCCN1C(=O)[C@H](CO)NC(=O)[C@H](CO)NC(=O)[C@H](Cc1c[nH]cn1)NC(=O)[C@H](CCCNC(=N)N)NC(=O)[C@H](CC(C)C)NC(=O)[C@H](Cc1ccccc1)NC(=O)[C@H](Cc1c[nH]cn1)NC(=O)[C@H](C)NC(=O)[C@H](CC(C)C)NC(=O)[C@H](CCCNC(=N)N)NC(=O)[C@H](CCC(N)=O)NC(=O)[C@@H](NC(=O)[C@H](C)NC(=O)[C@@H]1CSSC[C@H](NC(=O)[C@@H](N)CCCCNC(=O)CC[C@H](NC(=O)CCCCCCCCCCCCCCCCCCC(=O)O)C(=O)O)C(=O)N[C@@H](CC(N)=O)C(=O)N[C@@H]([C@@H](C)O)C(=O)N[C@@H](C)C(=O)N[C@@H]([C@@H](C)O)C(=O)N1)[C@@H](C)O)C(=O)N1CCC[C@H]1C(=O)N[C@@H](CO)C(=O)N[C@@H](CO)C(=O)N[C@H](C(=O)N[C@@H](CC(N)=O)C(=O)N[C@H](C(=O)NCC(=O)N[C@@H](CCCNC(=N)N)C(=O)N[C@@H](CC(N)=O)C(=O)N[C@H](C(=O)N[C@@H](Cc1ccc(O)cc1)C(N)=O)[C@@H](C)O)C(C)C)[C@@H](C)O
notes: also called compound 85
For B3, the IC50 in assay [1] came to 80.4 nM. Besides, the “Ratio hCT/hAmylin binding” value in assay [2] was determined as 91.8.

As to K([γGlu-C20 diacid])CNTATCATQRLAEFLRHSSPNFGAIPSSTNVGPHTY-NH2 (disulfide 2-7), the IC50 in assay [1] stood at 3.8 nM. Moreover, the “Ratio hCT/hAmylin binding” value in assay [2] worked out at 21.2.

B4: N^ε1-[(4S)-4-carboxy-4-(19-carboxynonadecanoylamino)butanoyl]-[His14,Arg17,Pro21,Pro27,His34]-h-amylin (peptide)
peptide: K([γGlu-C20 diacid])CNTATCATQRLAHFLRHSSPNFGAIPSSTNVGHNTY-NH2
modifications: disulfide 2-7; N-terminus assumed
SMILES: CC[C@H](C)[C@H](NC(=O)[C@H](C)NC(=O)CNC(=O)[C@H](Cc1ccccc1)NC(=O)[C@H](CC(N)=O)NC(=O)[C@@H]1CCCN1C(=O)[C@H](CO)NC(=O)[C@H](CO)NC(=O)[C@H](Cc1c[nH]cn1)NC(=O)[C@H](CCCNC(=N)N)NC(=O)[C@H](CC(C)C)NC(=O)[C@H](Cc1ccccc1)NC(=O)[C@H](Cc1c[nH]cn1)NC(=O)[C@H](C)NC(=O)[C@H](CC(C)C)NC(=O)[C@H](CCCNC(=N)N)NC(=O)[C@H](CCC(N)=O)NC(=O)[C@@H](NC(=O)[C@H](C)NC(=O)[C@@H]1CSSC[C@H](NC(=O)[C@@H](N)CCCCNC(=O)CC[C@H](NC(=O)CCCCCCCCCCCCCCCCCCC(=O)O)C(=O)O)C(=O)N[C@@H](CC(N)=O)C(=O)N[C@@H]([C@@H](C)O)C(=O)N[C@@H](C)C(=O)N[C@@H]([C@@H](C)O)C(=O)N1)[C@@H](C)O)C(=O)N1CCC[C@H]1C(=O)N[C@@H](CO)C(=O)N[C@@H](CO)C(=O)N[C@H](C(=O)N[C@@H](CC(N)=O)C(=O)N[C@H](C(=O)NCC(=O)N[C@@H](Cc1c[nH]cn1)C(=O)N[C@@H](CC(N)=O)C(=O)N[C@H](C(=O)N[C@@H](Cc1ccc(O)cc1)C(N)=O)[C@@H](C)O)C(C)C)[C@@H](C)O
notes: also called compound 81
In the case of B4, the IC50 in assay [1] is 23.6 nM. Moreover, the “Ratio hCT/hAmylin binding” value in assay [2] came to 87.2.

B5: N^ε1-[(4S)-4-carboxy-4-(19-carboxynonadecanoylamino)butanoyl]-[Glu14,Arg17,Pro21,Pro27,Pro34,Arg35]-h-amylin (peptide)
peptide: K([γGlu-C20 diacid])CNTATCATQRLAEFLRHSSPNFGAIPSSTNVGPRTY-NH2
modifications: disulfide 2-7; N-terminus assumed
SMILES: CC[C@H](C)[C@H](NC(=O)[C@H](C)NC(=O)CNC(=O)[C@H](Cc1ccccc1)NC(=O)[C@H](CC(N)=O)NC(=O)[C@@H]1CCCN1C(=O)[C@H](CO)NC(=O)[C@H](CO)NC(=O)[C@H](Cc1c[nH]cn1)NC(=O)[C@H](CCCNC(=N)N)NC(=O)[C@H](CC(C)C)NC(=O)[C@H](Cc1ccccc1)NC(=O)[C@H](CCC(=O)O)NC(=O)[C@H](C)NC(=O)[C@H](CC(C)C)NC(=O)[C@H](CCCNC(=N)N)NC(=O)[C@H](CCC(N)=O)NC(=O)[C@@H](NC(=O)[C@H](C)NC(=O)[C@@H]1CSSC[C@H](NC(=O)[C@@H](N)CCCCNC(=O)CC[C@H](NC(=O)CCCCCCCCCCCCCCCCCCC(=O)O)C(=O)O)C(=O)N[C@@H](CC(N)=O)C(=O)N[C@@H]([C@@H](C)O)C(=O)N[C@@H](C)C(=O)N[C@@H]([C@@H](C)O)C(=O)N1)[C@@H](C)O)C(=O)N1CCC[C@H]1C(=O)N[C@@H](CO)C(=O)N[C@@H](CO)C(=O)N[C@H](C(=O)N[C@@H](CC(N)=O)C(=O)N[C@H](C(=O)NCC(=O)N1CCC[C@H]1C(=O)N[C@@H](CCCNC(=N)N)C(=O)N[C@H](C(=O)N[C@@H](Cc1ccc(O)cc1)C(N)=O)[C@@H](C)O)C(C)C)[C@@H](C)O
In the case of B5, in assay [1], the IC50 came out at 6.3 nM. Further, the “Ratio hCT/hAmylin binding” value in assay [2] was found to be 38.6.

B6: N^ε1-[(4S)-4-carboxy-4-(19-carboxynonadecanoylamino)butanoyl]-[Glu14,Arg17,Pro21,Pro27,Pro34,Glu35]-h-amylin (peptide)
peptide: K([γGlu-C20 diacid])CNTATCATQRLAEFLRHSSPNFGAIPSSTNVGPETY-NH2
modifications: disulfide 2-7; N-terminus assumed
SMILES: CC[C@H](C)[C@H](NC(=O)[C@H](C)NC(=O)CNC(=O)[C@H](Cc1ccccc1)NC(=O)[C@H](CC(N)=O)NC(=O)[C@@H]1CCCN1C(=O)[C@H](CO)NC(=O)[C@H](CO)NC(=O)[C@H](Cc1c[nH]cn1)NC(=O)[C@H](CCCNC(=N)N)NC(=O)[C@H](CC(C)C)NC(=O)[C@H](Cc1ccccc1)NC(=O)[C@H](CCC(=O)O)NC(=O)[C@H](C)NC(=O)[C@H](CC(C)C)NC(=O)[C@H](CCCNC(=N)N)NC(=O)[C@H](CCC(N)=O)NC(=O)[C@@H](NC(=O)[C@H](C)NC(=O)[C@@H]1CSSC[C@H](NC(=O)[C@@H](N)CCCCNC(=O)CC[C@H](NC(=O)CCCCCCCCCCCCCCCCCCC(=O)O)C(=O)O)C(=O)N[C@@H](CC(N)=O)C(=O)N[C@@H]([C@@H](C)O)C(=O)N[C@@H](C)C(=O)N[C@@H]([C@@H](C)O)C(=O)N1)[C@@H](C)O)C(=O)N1CCC[C@H]1C(=O)N[C@@H](CO)C(=O)N[C@@H](CO)C(=O)N[C@H](C(=O)N[C@@H](CC(N)=O)C(=O)N[C@H](C(=O)NCC(=O)N1CCC[C@H]1C(=O)N[C@@H](CCC(=O)O)C(=O)N[C@H](C(=O)N[C@@H](Cc1ccc(O)cc1)C(N)=O)[C@@H](C)O)C(C)C)[C@@H](C)O
B6: the IC50 in assay [1] stood at 1.86 nM. Also, the “Ratio hCT/hAmylin binding” value in assay [2] came to 13.3.
